Measured values taken from the supplement of paper PMC10567573.

B1: IKZF1 (parent)
chain: RDPFECNMCGYHSQDRYEFSSHIT

Variants of: B1
Experiment: protein stability index of a GFP-peptide fusion (GPS, HEK-293T) (PSI 1-6); higher = more stable
Details: c terminus: a fixed tail appended
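Further: lentivirally expressed fusions sorted by FACS into six bins by GFP to DsRed ratio, PSI derived from sequencing read proportions per bin multiplied by bin number.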

Protein stability index, by site and new letter:
Y11: A 2.58, E 3.29, I 1.86, F 2.01
N7: H 2.25, T 2.18, M 1.97, S 1.72, G 2.25, L 1.79, C 1.89, F 1.33, Q 2.01, I 2.05, A 1.75, Y 1.83, K 2.37, R 1.49, D 2.51, V 2.04, W 1.93, E 2.29, P 3.61
E18: F 2.39, D 2.38, C 1.91, A 1.91, N 1.54, G 2.63, H 2.08, I 2.18, M 1.54, L 2.21, K 1.74
E5: R 1.92, Q 2.06, K 2.07, Y 1.85, G 1.82, A 2.13, F 1.78, S 1.33, L 2.08, W 1.59, M 1.88, H 1.9, V 2.01, P 1.91, N 1.71, C 2.11, D 2.7, T 2.38, I 2.38
Q14: I 2.13, W 1.22, V 1.85, Y 2.31, M 1.86, L 1.93, S 2.43, N 2.42, T 2.17, D 2.09, G 2.38, H 2.22, K 1.97, C 1.87, F 1.47, A 1.98, R 2.25, E 2.29, P 2.3
F4: C 2.31, T 2.97, H 2.47, P 2.54, D 2.9, A 2.44, V 2.2, E 2.66, I 1.89, N 3.05, Q 2.91, L 2.17, W 2.27, S 2.52, M 2.4, K 2.77, R 3.08, Y 2.07, G 2.68
M8: D 3.11, L 2.18, A 1.81, S 2.4, F 2.23, N 2.54, Q 2.21, G 2.07, K 2.52, P 2.64, R 2.02, T 2.39, V 2.3, I 2.16, E 3.08, H 2.17, C 2.19, W 2.34, Y 2.4
R1: A 2.63, M 2.26, F 1.88, P 2.43, N 2.44, G 2.49, K 2.15, V 2.25, H 2.92, W 2.2, E 2.67, L 2.31, Y 1.73, C 2.47, I 2.13, S 2.1, D 2.73, T 2.23, Q 2.55
H12: V 1.75, P 2.49, M 1.5, D 2.69, T 2.53, S 2.06, N 2.72, G 2.25, Q 3.01, A 2.6, E 2.39, K 2.27, C 1.82, L 2.69, I 2, F 2.15, W 1.63, Y 1.97, R 2.23
D15: T 2.12, Q 2.34, C 2.32, P 2.01, S 1.54, L 1.81, K 1.65, A 1.98, M 2.02, F 1.76, G 1.98, W 2.13, N 2.17, H 1.68, E 1.87, I 1.56, R 2.14, Y 1.66, V 1.8
